Assay results published in patent publication US20140349928A1 (MEDERIS DIABETES, published 2014).
Non-standard residues stand in square brackets, D forms with d. No end group written: not given here. Aib = CC(C)(N)C(=O)O

Molecular target: GLP-1 receptor
Assay: cell-based or functional assay

B1: EU-A391 (peptide)
peptide: H[Aib]QGT[Me‑Phe]TSDYSKYLD[Aib]K-NH2
modifications: not fully specified (residue 17); also: 1-dodecyl beta-D-glucuronyl surfactant on a linker residue
B1 was tested, and the “EC50, cAMP generated in cells (GLP-1 cellular assay)” value was 420 nM.
